Reference: patent US20150266963A1

Key:
[1] = target: T1, recombinant human CD70 (Flag-TNC-CD70) (human) (UniProt P32970); test: blocking ELISA; human Flag-TNC-CD70; competitor CD27-Fc
T1 sequence (looked up): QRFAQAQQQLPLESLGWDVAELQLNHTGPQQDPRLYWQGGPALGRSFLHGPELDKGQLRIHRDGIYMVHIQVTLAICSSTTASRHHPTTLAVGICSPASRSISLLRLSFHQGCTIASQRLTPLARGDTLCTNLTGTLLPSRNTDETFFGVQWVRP

[2] = target: T1, recombinant human CD70 (Flag-TNC-CD70) (human); test: blocking ELISA; Flag-TNC-CD70 captured by anti-FLAG M2; competitor CD27-Fc 6.5 nM
[3] = target: T2, human CD70 expressed on the surface of cells (human) (UniProt P32970); test: flow cytometry on U266 cells, 1 h at 4 °C, anti-hIgG1-Fc-FITC or anti-hIgG-Fc-PE [panel U266]
T2 sequence (looked up): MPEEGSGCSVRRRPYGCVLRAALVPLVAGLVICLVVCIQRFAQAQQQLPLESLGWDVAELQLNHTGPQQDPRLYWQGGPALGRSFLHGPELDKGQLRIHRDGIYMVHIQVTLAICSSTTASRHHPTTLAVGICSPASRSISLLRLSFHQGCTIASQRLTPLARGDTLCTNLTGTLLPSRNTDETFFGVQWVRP

[4] = target: T2, human CD70 expressed on the surface of cells (human); test: flow cytometry on U266 cells, goat anti human IgG1 FITC [panel U266]
[5] = target: T2, human CD70 expressed on the surface of cells (human); test: flow cytometry on SU-DHL-6 cells, 1 h at 4 °C, anti-hIgG1-Fc-FITC or anti-hIgG-Fc-PE [panel SU-DHL-6]

MDX1411 (antibody)
IC50 [1]: 0.044 µg/mL
IC50 [2]: 5.5 µg/mL
EC50 (read off the curve) [3]: 0.1 µg/mL
EC50 (read off the curve) [4]: 0.1 µg/mL
EC50 (read off the curve) [5]: 2 µg/mL
